Assay [1] deals with integrin αIIbβ3 of human platelets (human (endogenous in platelets)) (UniProt P08514).
Assay [2] has the same target. Kind of assay: flow cytometry on cells. For orientation: A flow cytometer gives signals particle by particle.

As a reminder, the IC50 is the concentration that gives 50% inhibition. Read a high IC50 as a need for much substance.

“Rhodostomin (Rho), recombinant, ^48PRGDMP-^65PRYH (natural protein)” returned an IC50 of inhibition of platelet aggregation in assay [1] of 83.2 nM. The same substance yielded an IC50 in assay [2] of 90.8 nM.

These data come from article PMC5388508.
